The nature of test [1]: Binding of ^125I-labeled GFLs to heparin-sepharose column, step NaCl elution. The method, then: GFL iodination was performed as described (Lindahl et al., 2001). Heparin-sepharose column (Amersham Biosciences) chromatography was performed to assess GFL binding to heparin. GDNF, ARTN, NRTN and PSPN were purchased from PeproTech, Ltd. or R&D Systems, Inc. GFLs were enzymatically labeled with carrier-free [^125I]NaI (Amersham Biosciences) by the lactoperoxidase method to a specific activity of 100000-200000 cpm/ng as described elsewhere (Lindahl et al., 2001). 15000-20000 cpm of iodinated GFLs, together with 10 μg of the same unlabeled protein as a carrier, were injected into a 1 ml heparin-sepharose column (Amersham Biosciences) in phosphate buffer pH 7.2 containing 100 mM NaCl and 10 mg/ml of BSA. After washing with 5 volumes of the same buffer, iodinated GFLs were eluted from the column by step elution (2 ml) with increasing NaCl concentration. The resulting fractions were counted on Rackbeta 1214 (LKB/Wallac) scintillation counter.

Test [2] in a line: SPR (IAsys): GFLs interaction with heparin-BSA cuvette. The test is classed as binding. On the procedure: (§1) The affinities of GFLs for heparin and heparin-like molecules (e.g. syndecan-3) were determined by plasmon surface resonance using the IAsys system (Affinity Sensors, Cambridge, UK). Planar aminosilane cuvettes (Affinity Sensors) were used for protein coupling to avoid problems with mass transport, which occur frequently with matrix surfaces. In the initial approach, heparin-BSA was immobilized to the cuvette surface using the manufacturer's instructions and different ligand concentrations were used to determine association (ka) and dissociation (kdis) rates using the IAsys Fastfit software. The dissociation constant Kd was determined from the binding dynamics as […], or from equilibrium response (R) using a simple Langmuir fit: R=(Rmax*C)/(Kd+C), where C is the ligand concentration. […] The dissociation constants were determined from binding dynamics and equilibrium response. The same cuvettes were used to test binding of heparan sulfate proteoglycan syndecan-3, which was purified as an ectodomain from early postnatal rat brains by HB-GAM affinity chromatography (Raulo et al., 1994).
(§2) Binding was analyzed using IAsys cuvettes with immobilized heparin-BSA or GFLs. The dissociation constant Kd was determined from dynamics of association and dissociation (Kd=kdis/ka), or from equilibrium response R (R=(Rmax*C)/(Kd+C), where C is ligand concentration).

The target in another test is T1, syndecan-3 ectodomain (Rattus norvegicus, UniProt P33671).
T1 construct: purified as an ectodomain from early postnatal rat brains; from tissue; host or cells: early postnatal rat brain
T1 sequence (P33671 45-387 limits assumed): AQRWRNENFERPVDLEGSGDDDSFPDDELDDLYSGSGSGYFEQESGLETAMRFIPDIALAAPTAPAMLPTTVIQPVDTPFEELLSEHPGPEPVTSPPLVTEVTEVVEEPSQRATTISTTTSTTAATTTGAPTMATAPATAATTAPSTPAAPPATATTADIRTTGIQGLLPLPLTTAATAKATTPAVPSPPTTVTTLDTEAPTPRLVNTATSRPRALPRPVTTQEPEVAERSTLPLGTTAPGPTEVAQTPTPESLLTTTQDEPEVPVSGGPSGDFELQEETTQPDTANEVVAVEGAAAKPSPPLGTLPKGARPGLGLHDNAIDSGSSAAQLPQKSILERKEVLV
Nature of the test: SPR (IAsys): syndecan-3 ectodomain interaction with GFLs cuvette. In kind it is binding. The following applies: syndecan-3 ectodomain in solution. The method, then:
as §1, §2

The subject of the next test is SHEP cells. In words: SHEP cell adhesion and spreading assay on immobilized proteins. The test is classed as cell-based, human. Particulars: protein immobilized on plastic microplate. On the procedure: Cell adhesion assays were essentially performed as described elsewhere (Weinacker et al., 1994). To prepare protein-coated surfaces the protein of interest (10 μg/ml in PBS) was applied to 96-well ELISA (Greiner) plates or to glass cover slips for 12-18 hours at +4° C. After incubation, the surfaces were washed with PBS and blocked with 1% globulin-free BSA for two hours. Some GDNF coated surfaces were incubated with 20 μg/ml of G-90 (Amgen) GDNF function-blocking antibodies (Xu et al., 1998) for 2 hours at room temperature.
Subconfluent SHEP cells were harvested in PBS supplemented with 10 mM EDTA for 5 min at 37° C. Cells were washed with incubation buffer (RPMI 1640, 0.2% BSA, 15 mM HEPES pH 7.2) and 10000-40000 cells/well plated on the protein coated surface. Plates were centrifuged for 5 min at 10 g and incubated for one hour at 37° C. in 5% CO2. After incubation cells were washed with PBS, fixed with methanol supplemented with crystal violet for 15 min at room temperature and washed again with PBS. The remaining cells were counted using a Leica DMIRB inverted microscope with 10× objective in 5 fields per well.
Some cells were pretreated with heparinase III, PI-PLC (see above), 0.3 U/ml chodroitinase ABC for one hour at 37° C., 5% CO2, or with 20 μg/ml of NCAM blocking antibodies (AB5032, Chemicon Inc.) for 15-30 min on ice.
After one hour of incubation in serum-free medium unattached cells were removed by washing. The remaining cells were stained and counted on Leica DMIRB inverted microscope with a 10× objective in 5 fields per well and the resulting cell number was calculated for the whole well.
Live SHEP cells spreading on immobilized GDNF were imaged for 20 minutes using the Till imaging system with an Imago-QE digital camera (Till Photonics) equipped with heating (+37° C.) and CO2 supply (5%) chambers.

The next test concerns Src family kinase. Nature of the test: Src kinase phosphorylation assay in SHEP cells. The test is classed as cell-based, human. Particulars: SHEP cells plated on immobilized protein. On the procedure:
SHEP cells from 10-cm plates were harvested as described above and plated on GDNF-coated 35-mm Petri dishes. Cells were allowed to sediment for 10 min at room temperature and then transferred to 37° C. for additional 15 min. Cells were lysed in the lysis buffer (TBS, 1% Triton X-100, 0.5% deoxycholic acid, 0.1% SDS, 10% glycerol, 1 mM Na3VO4, 1 mM PMSF and Complete protease inhibitor mixture). Lysates were analyzed on 10% SDS-PAGE and western blots were stained with anti-pY^418Src or anti-pp60Src antibodies (Biosource). Some cells were pretreated with heparinase III or PI-PLC.

Test [3] relates to rat embryonic hippocampal neurons. Nature of the test: Neurite outgrowth assay in E17 rat hippocampal neurons. In kind it is cell-based. On the procedure: Hippocampi were dissected from E17 embryonic rat brains under the microscope and transferred to the preparation media (HBBS without Ca^2+ and Mg^2+ supplemented with 1 mM sodium pyruvate (Gibco) and buffered by 10 mM Hepes pH 7.2), then partially digested by papain and triturated in the preparation media supplemented with DNase I. Cells were washed with HBBS containing Ca^2+ and Mg^2+ and transferred to the growth media (Neurobasal media with B27 supplement, 2 mM L-glutamine, 25 μM glutamic acid and penicillin and streptomycin (Gibco)). For enzymatic treatments neurons were kept in the growth media supplemented with 0.2% BSA at +37° C. for one hour. After the treatment cells in the same media were seeded on the protein-coated cover slips (see above) and after 10 min, the media was changed for B27-free media. Neurons were incubated at +37° C., 5% CO2 for 18 hours.
For immunocytochemistry neurons were washed with PBS and fixed with 4% PFA, permeabilized with 0.1% Triton X-100 and stained with rabbit polyclonal antiserum to Protein Gene Product 9.5 (Affiniti), neuron-specific Class III tubulin-βIII clone Tuj1 antibodies (BABCO) or with antibodies against the neurofilament triplet, 13AA8 (Arumäe et al., 1993). Secondary antibodies were goat anti-rabbit or anti-mouse Alexa488-conjugated (Molecular Probes).
The immunostained cultures were viewed using the ×20 objective of a Zeiss Axioplan 2 fluorescent microscope (Zeiss). Neurons with at least two times longer than cell body diameter processes were considered process-bearing. Three cover slips were used in parallel and 100 neurons per cover slip were counted. Results were derived from 3 to 5 independent experiments.

B1: GDNF: Glial cell line-derived neurotrophic factor, secreted growth factor, GDNF family ligand (protein)
chain: SPDKQMAVLPRRERNRQAAAANPENSRGKGRRGQRGKNRGCVLTAIHLNVTDLGLGYETKEELIFRYCSGSCDAAETTYDKILKNLSRNRRLVSDKVGQACCRPIAFDDDLSFLDDNLVYHILRKHSAKRCGCI
What is called Kd is the constant that tells how readily two partners part at equilibrium. A low value points to tighter binding. B1: in test [1] (^125I-GFLs, step NaCl gradient), the “NaCl concentration at elution from heparin-sepharose column” value is 0.75 to 1 M. The “binding to heparin-sepharose column” value in test [1] (^125I-labeled GFLs) is reported as “bind strongly to heparin”. Also, in test [2] (GFL in solution), the “ka (×10^−5) (M^−1s^−1)” value is recorded as 3.7 (×10^−5) M^−1s^−1 and the “kdis” value stood at 0.017 s⁻¹. In addition, in test [2] (from dynamics), the “Kd = kdis/ka” value came out at 47.3 ± 9.9 nM. This molecule registered a Kd in test [2] (from equilibrium response) of 51.3 ± 3.6 nM. Further, the “ka (×10^−5) (M^−1s^−1)” value in the test with syndecan-3 ectodomain is 13 ± 2 (×10^−5) M^−1s^−1. Also, in the test with SHEP cells, the “adherence and spreading of SHEP cells on immobilized protein” value was “induced adherence and spreading”. Further, the “activation of Src family kinases (pY^418Src Western blot)” value with Src family kinase is given as “induces HSPG-dependent activation of Src family kinases”. Also, in test [3] (E17 rat hippocampal neurons, 18 hours), the “neurite outgrowth on immobilized protein” value was “stimulated neurite outgrowth”. The “neurite outgrowth with soluble protein” value in test [3] (soluble GDNF added to neurons grown on BSA-matrix) is given as “failed to induce neurites”.

These data come from patent publication US8034572B2, “Receptor for GDNF family ligands” (priority 2006, dated 2011).
